Reference: the RNAGym collection of RNA variant scans (doi:10.7554/elife.80360)

B1: CPEB3 Ribozyme (parent)
chain: GGGGGCCACAGCAGAAGCGUUCACGUCGCGGCCCCUGUCAGAUUCUGGUGAAUCUGCGAAUUCUGCUGU

Variants of: B1
Test: self-cleavage, relative activity (ratio to wild type); higher = more cleavage; co-transcriptional

| Variant | self-cleavage |
| --- | --- |
| GGGGGCCACAGCAGAAGCGUUCACGUCGCGGCCCCUGUCAGAUUCUGGUGAAUCUGUGGAUUCUGCUGU [C57U A59G] | 0.354 |
| GGGGGCCACAGCAGAAGCGUUCACGUCGCGGCCCCUGUCAGAUUCUGGUGAAUCUGUGUAUUCUGCUGU [C57U A59U] | 0.256 |
| GGGGGCCACAGCAGAAGCGUUCACGUCGCGGCCCCUGUCAGAUUCUGGUGAAUCUGUGACUUCUGCUGU [C57U A60C] | 0.372 |
| GGGGGCCACAGCAGAAGCGUUCACGUCGCGGCCCCUGUCAGAUUCUGGUGAAUCUGUGAGUUCUGCUGU [C57U A60G] | 0.39 |
| GGGGGCCACAGCAGAAGCGUUCACGUCGCGGCCCCUGUCAGAUUCUGGUGAAUCUGUGAUUUCUGCUGU [C57U A60U] | 0.298 |
| GGGGGCCACAGCAGAAGCGUUCACGUCGCGGCCCCUGUCAGAUUCUGGUGAAUCUGUGAAUUAUGCUGU [C57U C63A] | 0.438 |
| GGGGGCCACAGCAGAAGCGUUCACGUCGCGGCCCCUGUCAGAUUCUGGUGAAUCUGUGAAUUGUGCUGU [C57U C63G] | 0.397 |
| GGGGGCCACAGCAGAAGCGUUCACGUCGCGGCCCCUGUCAGAUUCUGGUGAAUCUGUGAAUUCUGAUGU [C57U C66A] | 0.316 |
| GGGGGCCACAGCAGAAGCGUUCACGUCGCGGCCCCUGUCAGAUUCUGGUGAAUCUGUGAAUUCUGGUGU [C57U C66G] | 0.317 |
| GGGGGCCACAGCAGAAGCGUUCACGUCGCGGCCCCUGUCAGAUUCUGGUGAAUCUGUAAAUUCUGCUGU [C57U G58A] | 0.289 |
| GGGGGCCACAGCAGAAGCGUUCACGUCGCGGCCCCUGUCAGAUUCUGGUGAAUCUGUCAAUUCUGCUGU [C57U G58C] | 0.451 |
| GGGGGCCACAGCAGAAGCGUUCACGUCGCGGCCCCUGUCAGAUUCUGGUGAAUCUGUUAAUUCUGCUGU [C57U G58U] | 0.42 |
| GGGGGCCACAGCAGAAGCGUUCACGUCGCGGCCCCUGUCAGAUUCUGGUGAAUCUGUGAAUUCUACUGU [C57U G65A] | 0.357 |
| GGGGGCCACAGCAGAAGCGUUCACGUCGCGGCCCCUGUCAGAUUCUGGUGAAUCUGUGAAUUCUCCUGU [C57U G65C] | 0.374 |
| GGGGGCCACAGCAGAAGCGUUCACGUCGCGGCCCCUGUCAGAUUCUGGUGAAUCUGUGAAUUCUGCUAU [C57U G68A] | 0.395 |
| GGGGGCCACAGCAGAAGCGUUCACGUCGCGGCCCCUGUCAGAUUCUGGUGAAUCUGUGAAUUCUGCUUU [C57U G68U] | 0.416 |
| GGGGGCCACAGCAGAAGCGUUCACGUCGCGGCCCCUGUCAGAUUCUGGUGAAUCUGUGAACUCUGCUGU [C57U U61C] | 0.371 |
| GGGGGCCACAGCAGAAGCGUUCACGUCGCGGCCCCUGUCAGAUUCUGGUGAAUCUGUGAAGUCUGCUGU [C57U U61G] | 0.463 |
| GGGGGCCACAGCAGAAGCGUUCACGUCGCGGCCCCUGUCAGAUUCUGGUGAAUCUGUGAAUACUGCUGU [C57U U62A] | 0.363 |
| GGGGGCCACAGCAGAAGCGUUCACGUCGCGGCCCCUGUCAGAUUCUGGUGAAUCUGUGAAUCCUGCUGU [C57U U62C] | 0.41 |

| Variant | self-cleavage |
| --- | --- |
| GGGGGCCACAGCAGAAGCGUUCACGUCGCGGCCCCUGUCAGAUUCUGGUGAAUCUGUGAAUUCGGCUGU [C57U U64G] | 0.365 |
| GGGGGCCACAGCAGAAGCGUUCACGUCGCGGCCCCUGUCAGAUUCUGGUGAAUCUGUGAAUUCUGCAGU [C57U U67A] | 0.365 |
| GGGGGCCACAGCAGAAGCGUUCACGUCGCGGCCCCUGUCAGAUUCUGGUGAAUCUGUGAAUUCUGCCGU [C57U U67C] | 0.465 |
| GGGGGCCACAGCAGAAGCGUUCACGUCGCGGCCCCUGUCAGAUUCUGGUGAAUCUGUGAAUUCUGCGGU [C57U U67G] | 0.509 |
| GGGGGCCACAGCAGAAGCGUUCACGUCGCGGCCCCUGUCAGAUUCUGGUGAAUCUGUGAAUUCUGCUGA [C57U U69A] | 0.478 |
| GGGGGCCACAGCAGAAGCGUUCACGUCGCGGCCCCUGUCAGAUUCUGGUGAAUCUGUGAAUUCUGCUGG [C57U U69G] | 0.473 |
| GGGGGCCACAGCAGAAGCGUUCACGUCGCGGCCCCUGUCAGAUUCUGGUGAAUCUGCACAUUCUGCUGU [G58A A59C] | 0.558 |
| GGGGGCCACAGCAGAAGCGUUCACGUCGCGGCCCCUGUCAGAUUCUGGUGAAUCUGCAGAUUCUGCUGU [G58A A59G] | 0.949 |
| GGGGGCCACAGCAGAAGCGUUCACGUCGCGGCCCCUGUCAGAUUCUGGUGAAUCUGCAUAUUCUGCUGU [G58A A59U] | 0.592 |
| GGGGGCCACAGCAGAAGCGUUCACGUCGCGGCCCCUGUCAGAUUCUGGUGAAUCUGCAACUUCUGCUGU [G58A A60C] | 0.495 |
| GGGGGCCACAGCAGAAGCGUUCACGUCGCGGCCCCUGUCAGAUUCUGGUGAAUCUGCAAGUUCUGCUGU [G58A A60G] | 0.83 |
| GGGGGCCACAGCAGAAGCGUUCACGUCGCGGCCCCUGUCAGAUUCUGGUGAAUCUGCAAUUUCUGCUGU [G58A A60U] | 0.919 |
| GGGGGCCACAGCAGAAGCGUUCACGUCGCGGCCCCUGUCAGAUUCUGGUGAAUCUGCAAAUUGUGCUGU [G58A C63G] | 0.757 |
| GGGGGCCACAGCAGAAGCGUUCACGUCGCGGCCCCUGUCAGAUUCUGGUGAAUCUGCAAAUUUUGCUGU [G58A C63U] | 0.957 |
| GGGGGCCACAGCAGAAGCGUUCACGUCGCGGCCCCUGUCAGAUUCUGGUGAAUCUGCAAAUUCUGAUGU [G58A C66A] | 0.81 |
| GGGGGCCACAGCAGAAGCGUUCACGUCGCGGCCCCUGUCAGAUUCUGGUGAAUCUGCAAAUUCUGGUGU [G58A C66G] | 0.881 |
| GGGGGCCACAGCAGAAGCGUUCACGUCGCGGCCCCUGUCAGAUUCUGGUGAAUCUGCAAAUUCUGUUGU [G58A C66U] | 0.938 |
| GGGGGCCACAGCAGAAGCGUUCACGUCGCGGCCCCUGUCAGAUUCUGGUGAAUCUGCAAAUUCUACUGU [G58A G65A] | 0.901 |
| GGGGGCCACAGCAGAAGCGUUCACGUCGCGGCCCCUGUCAGAUUCUGGUGAAUCUGCAAAUUCUGCUAU [G58A G68A] | 0.944 |
